What all share (experiment): fructose release, DNS method
Details in all cases: 20 mM sodium acetate pH 5.5, 1 mM CaCl2, 28°C, 5-200 mM sucrose

One series deals with T1, Gtf2.
T1 construct: signal peptide removed, C-terminal His6 (pET23b), E. coli BL21(DE3); full-length precursor 1479 residues; draft genome BOPR01000001
The format is biochemical, Leuconostoc mesenteroides subsp. mesenteroides. From the text: fructose release, DNS method on Gtf2

Substrate in series [1]: OC[C@H]1O[C@@](CO)(O[C@H]2O[C@H](CO)[C@@H](O)[C@H](O)[C@H]2O)[C@@H](O)[C@@H]1O
The format is biochemical, Leuconostoc mesenteroides. From the text: fructose release, DNS method on LEUM1752

Substrate in series [2]: OC[C@H]1O[C@@](CO)(O[C@H]2O[C@H](CO)[C@@H](O)[C@H](O)[C@H]2O)[C@@H](O)[C@@H]1O
The format is biochemical, Leuconostoc mesenteroides. From the text: fructose release, DNS method on LEUM1747
This is another data set of the same source.

Usually Km stands for the substrate concentration at which the rate is half of its maximum. Take `OC[C@H]1O[C@@](CO)(O[C@H]2O[C@H](CO)[C@@H](O)[C@H](O)[C@H]2O)[C@@H](O)[C@@H]1O` [sucrose]: the Km with Gtf2 was 23 mM.

B1: LEUM1752 (Leuconostoc mesenteroides subsp. mesenteroides ATCC 8293) (protein)
chain: DVSQNNGVVVATAVDQSNLDATTSDKSITTDDKAATTAATSTDDKATTTVATSTDDKDTTTAATSTDDKATTTVATSTDDKATTTAATSTDDKAATTAATSTDDKAATTAATSTDDKAATTADTSTDDKAATTAATSTDDKATTTAATSTDDKTATTVGTSDNNNSATASDKDVSSSAQKSQTIDNNSKTADTTAALEASSKNLKTIDGKTYYYDDDDQVKKNFATVIDGKVLYFDKETGALADTNDYQFLEGLTSENNTYTEHNASVGTSSDSYTNVDGYLTADSWYRPKDILVNGQNWESSKDDDLRPLLMTWWPDKATQVNYLNAMKYLDATETETVYTSDDSQDALNKAAQNIQVKIEEKISQEGQTQWLKDDISKFVDSQSNWNIASESKGTDHLQGGALLYVNSDKTPDANSDYRLLNRTPTNQTGTPLYTTDPTQGGYDFLLANDVDNSNPVVQAEQLNWMYYLLNFGSITNNDADANFDSIRVDAVDNVDADLLQIAADYFKAAYGVDKSDAISNQHVSILEDWSDNDAEYVKDNGDNQLSMDNKLRLSLKYSLTMPAVDQYGNKRSGLEPFLTNSLVDRTNDSTDNTAQPNYSFVRAHDSEVQTVIAEIIKQRIDPDSDGLSPTMDQLTEAFKIYNADQLKTDKEFTQYNIPSTYATILTNKDTVPRVYYGDMYTDDGQYMATKSLYYDAIDTLLKSRIKYVSGGQTMSMKYMQGDSSMAADSYRGILTSVRYGNGAMTATDAGTNETRTQGIAVIESNNPDLKLSSTDQVVVDMGIAHKNQAYRPALLTTKDGIDTYVSDSDVSQSLIRYTNSNGQLIFNSSDIVGTANPQVSGYLAVWVPVGASDTQDARTESSTATTADGQTLHSNAALDSQVIYESFSNFQSTPTTEAEYANVQIANNTDLYKSWGITNFEFPPQYRSSTDSSFLDSIIQNGYAFTDRYDLGFNTPTKYGTVDQLRTAIKALHATGIKAMADWVPDQIYNLTGKEVVAVQRVNNSGIYNQDSVINKTLYASQTVGGGEYQALYGGEFLDEIKKLYPSLFEKNQISTGVPMDASEKIKEWSAKYFNGTNIQGRGAYYVLKDWATNEYFKVSTSSNSSVFLPKQLTNEESNTGFISTDGGMTYYSTSGYQAKDTFIQDDKSNWYYFDKNGYMTYGFQTVNDNNYYFLPNGIELQDAILEDSKGNVYYFNQYGKQAVDGYYMLANKTWRYFDKNGVMANAGLTTVTVDGQEHIQYFDKNGIQVKGTSVKDADGKLRYFDTDSGDMVTNRFGENTDGTWSYFGADGIAVTGAQTISGQKLFFDADGQQIKGKEATDKKGKVHYYDANSGEMITNRFEKLSDGSWAYFNKKGNIVTGAQVINGQHLFFESNGNQVKGREYTATDGKMRYYDADSGDMVTNRFERISDGSWAYFGANGVAVTGEQNINGQQLYFDANGHQVKGAAVTQADGSQKYYDANSGEMIKS
notes: signal peptide removed, C-terminal His6 (pET23b), E. coli BL21(DE3)
What is called kcat/Km is the turnover number divided by the Michaelis constant. With B1, in series [1], the Km is listed as 1.9 × 10^1 ± 0.1 mM and the kcat/Km came to 1300 M⁻¹ s⁻¹.

B2: LEUM1747 (Leuconostoc mesenteroides subsp. mesenteroides ATCC 8293) (protein)
chain: TPSVLGDSSVPDVSANNVQSASDNTTDTQQNTTVTEENDKVQSAATNDNVTTAASDTTQSADNNVTEKQSDDHALDNEKVDNKQDEVAQTNVTSKDEESAVASTDTDPAETTTDETQQVSGKYVEKDGSWYYYFDDGKNAKGLSTIDNNIQYFDESGKQVKGQYVTIDNQTYYFDKDSGDELTGLQSIDGNIVAFNDEGQQIFNQYYQSENGTTYYFDDKGHAATGIKNIEGKNYYFDNLGQLKKGFSGVIDGQIMTFDQETGQEVSNTTSEIKEGLTTQNTDYSEHNAAHGTDAEDFENIDGYLTASSWYRPTDILRNGTDWEPSTDTDFRPILSVWWPDKNTQVNYLNYMADLGFISNADSFETGDSQSLLNEASNYVQKSIEMKISAQQSTEWLKDAMAAFIVTQPQWNETSEDMSNDHLQNGALTYVNSPLTPDANSNFRLLNRTPTNQTGEQAYNLDNSKGGFELLLANDVDNSNPVVQAEQLNWLYYLMNFGTITANDADANFDGIRVDAVDNVDADLLQIAADYFKLAYGVDQNDATANQHLSILEDWSHNDPLYVTDQGSNQLTMDDYVHTQLIWSLTKSSDIRGTMQRFVDYYMVDRSNDSTENEAIPNYSFVRAHDSEVQTVIAQIVSDLYPDVENSLAPTTEQLAAAFKVYNEDEKLADKKYTQYNMASAYAMLLTNKDTVPRVYYGDLYTDDGQYMATKSPYYDAINTLLKARVQYVAGGQSMSVDSNDVLTSVRYGKDAMTASDTGTSETRTEGVGVIVSNNAELQLEDGHTVTLHMGAAHKNQAYRALLSTTADGLAYYDTDENAPVAYTDANGDLIFTNESIYGVQNPQVSGYLAVWVPVGAQQDQDARTASDTTTNTSDKVFHSNAALDSQVIYEGFSNFQAFATDSSEYTNVVIAQNADQFKQWGVTSFQLAPQYRSSTDTSFLDSIIQNGYAFTDRYDLGYGTPTKYGTADQLRDAIKALHASGIQAIADWVPDQIYNLPEQELATVTRTNSFGDDDTDSDIDNALYVVQSRGGGQYQEMYGGAFLEELQALYPSLFKVNQISTGVPIDGSVKITEWAAKYFNGSNIQGKGAGYVLKDMGSNKYFKVVSNTEDGDYLPKQLTNDLSETGFTHDDKGIIYYTLSGYRAQNAFIQDDDNNYYYFDKTGHLVTGLQKINNHTYFFLPNGIELVKSFLQNEDGTIVYFDKKGHQVFDQYITDQNGNAYYFDDAGVMLKSGLATIDGHQQYFDQNGVQVKDKFVIGTDGYKYYFEPGSGNLAILRYVQNSKNQWFYFDGNGHAVTGFQTINGKKQYFYNDGHQSKGEFIDADGDTFYTSATDGRLVTGVQKINGITYAFDNTGNLITNQYYQLADGKYMLLDDSGRAKTGFVLQDGVLRYFDQNGEQVKDAIIVDPDTNLSYYFNATQGVAVKNDYFEYQGNWYLTDANYQLIKGFKAVDDSLQHFDEVTGVQTKDSALISAQGKVYQFDNNGNAVSA
notes: as for B1
Take B2: in series [2], the Michaelis constant (Km) is 2.5 × 10^1 ± 0.2 mM and the kcat/Km was 1400 M⁻¹ s⁻¹.

Values taken from publication PMC8550178, “Enzymatically synthesized exopolysaccharide of a probiotic strain Leuconostoc mesenteroides NTM048 shows adjuvant activity to promote IgA antibody responses” (Gut Microbes, 2021).
